T1: TGFb2 (Homo sapiens, UniProt P61812)
T1 construct: purchased Abcam
T1 sequence (P61812 303-414 limits assumed): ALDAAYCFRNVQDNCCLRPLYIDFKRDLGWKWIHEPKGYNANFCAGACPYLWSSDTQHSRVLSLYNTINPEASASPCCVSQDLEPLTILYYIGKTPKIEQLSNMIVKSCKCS

T2: GDF15 (Homo sapiens, UniProt Q99988)
T2 construct: purchased Abcam
T2 sequence (Q99988 195-308): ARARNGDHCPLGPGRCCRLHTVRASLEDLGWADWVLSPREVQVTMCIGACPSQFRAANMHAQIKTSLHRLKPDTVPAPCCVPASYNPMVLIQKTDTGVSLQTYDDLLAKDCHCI

T3: TGFb3 (Homo sapiens, UniProt P10600)
T3 construct: purchased Abcam
T3 sequence (P10600 301-412 limits assumed): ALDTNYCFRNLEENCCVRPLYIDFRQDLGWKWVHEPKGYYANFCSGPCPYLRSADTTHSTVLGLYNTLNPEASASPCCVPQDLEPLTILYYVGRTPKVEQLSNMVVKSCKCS


Tests used:
[1] = biological target: T1, TGFb2; experiment: ELISA binding of ligand to immobilized CLPTM1 peptide fragments; settings: biotinylated peptide immobilized at 1 μM; ligand 100 ng/ml; OD 450-620 measured
Method: (§1) Biotinylated synthetic peptide fragments from CLPTM1 (JPT peptides, Germany) were immobilized in a streptavidin 96 well plate (#15500 Pierce) at 1 μM in PBS over night at +4° C. Plate was then washed 4 times in 300 μl PBS with 0.05% tween-20 (wash buffer). The plate was then blocked with PBS 1% BSA and 0.05% tween-20 (blocking buffer) for 1.5 hours at room temperature, then washed 4 times in wash buffer. Ligands GDF15, TGFb1, TGFb2 and TGFb3 (Abcam) were added in blocking buffer at 100 ng/ml and incubated at room temperature for 2 hours. The plate was then washed 8 times in 300 μL wash buffer with 2× NaCl. An anti-GDF15 antibody was added at 1 μg/ml (R&D Systems, goat polyclonal) or a pan-specific anti-TGFb antibody (R&D Systems, mouse 1 D11), and the plate incubated in blocking buffer for 1 hour at room temperature followed by washing with 4×300 μl wash buffer. HAF017 anti-goat-HRP antibody (to detect the anti-GDF15 antibody) or Santa Cruz sc-2005 Goat anti-mouse-HRP (to detect the pan-specific anti-TGFb antibody) was added and the plate incubated for 1 hour in blocking buffer followed by a wash. TMB substrate was added and stopped after 15 minutes with H2SO4. OD 450-620 was measured in an ELISA reader.

[2] = biological target: T4, TGFb1 (Homo sapiens, UniProt P01137); experiment: as above; settings: biotinylated peptide immobilized at 1 μM; ligand 100 ng/ml; OD 450-620 measured
T4 construct: purchased Abcam
T4 sequence (P01137 279-390 limits assumed): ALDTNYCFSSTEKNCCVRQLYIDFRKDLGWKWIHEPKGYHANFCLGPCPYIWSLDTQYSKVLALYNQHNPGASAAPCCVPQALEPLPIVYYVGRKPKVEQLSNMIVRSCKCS
Method: as §1

[3] = biological target: T2, GDF15; experiment: as above; settings: biotinylated peptide immobilized at 1 μM; ligand 100 ng/ml; OD 450-620 measured
Method: as §1

[4] = biological target: T3, TGFb3; experiment: as above; settings: biotinylated peptide immobilized at 1 μM; ligand 100 ng/ml; OD 450-620 measured
Method: as §1

[5] = tested on: TGF-β proteins; experiment: ELISA of Example 1, binding; settings: result in words
Method: as §1

[6] = tested on: M2 polarized macrophages; experiment: isPLA of TBK1 after ligand stimulation; type: cell-based, human; settings: 10 ng/ml o/n, vs untreated control
Method: Human primary M2 polarized macrophages was derived from PBMC obtained from healthy volunteer blood donors. CD14+ cells were isolated using an EasySep CD14 Positive Selection Kit, maintained in RPMI-1640 medium supplemented with 10% FBS, L-Glutamine and Pen-strep. Cells were cultivated for 6 days in the presence of 50 ng/ml recombinant macrophage colony-stimulating factor (M-CSF, R&D Systems) in order to polarize the cells towards an M2 subtype.
For in situ proximity ligation assay (isPLA) experiments the cells were re-plated into 8-well slides (Lab-Tek™ II Chamber Slides, Thermo Fisher).
Cells were stimulated with either TGFB1, TGFB2, TGFB3 at 10 ng/ml. For isPLA, new medium was added, with individual ligands added to separate wells, and the cells incubated o/n prior to fixation in 3% formaldehyde solution for 20 minutes on ice the following day. Fixed cells were washed extensively in PBS and lysed in PBS with 1% Triton at room temperature for 20 minutes. The cells were blocked with Duolink blocking solution (Sigma) and primary antibodies at 1 μg/ml were added o/n. […] The slides were analysed using a Zeiss inverted epiflouroscence microscope set at 20× magnification. DAPI, FITC and CY3.5 channels were recorded. […]

[7] = tested on: MCF7 breast cancer cells; experiment: Western blot of PTP1B after ligand stimulation; type: cell-based, human; settings: ligand 10 ng/ml, vs untreated control
[8] = tested on: NK-92 cells; experiment: Proseek secreted proteins, NK-92 culture; type: cell-based; settings: NK92 culture
Method: Secreted proteins from cell cultures where quantified using multiplexed proximity extension assay, Proseek (Assarsson E et al PlosOne 2014) by Olink Proteomics AB (Uppsala Sweden). Data is presented as Normalized Protein Expression (NPX log 2-scale). The Oncology I v2 92-plex panel was run. NK-92 cells were cultured in RPMI-1640 supplemented with 10% FBS, 12.5% Horse serum, L-glutamine, IL2 and 3-mercaptoethanol.

[9] = tested on: PBMC; experiment: Proseek secreted proteins, PBMC culture; type: cell-based
Method: Secreted proteins from cell cultures where quantified using multiplexed proximity extension assay, Proseek (Assarsson E et al PlosOne 2014) by Olink Proteomics AB (Uppsala Sweden). Data is presented as Normalized Protein Expression (NPX log 2-scale). The Oncology I v2 92-plex panel was run.
A cell suspension of heparinized peripheral blood was diluted 1:1 and placed on a Ficoll Paque Plus. Cells were centrifuged at 400×g for 30 minutes and the PBMC layer was transferred to a 50 ml tube of PBS and centrifuged for 7 min at 250×g.

[10] = tested on: MCF7 cells; experiment: Proseek secreted proteins, MCF7 culture; type: cell-based, human; settings: FIG. 6A: exosomes from MCF7 cells, GDF15 1.5 μg/ml 1 hr
Method: Secreted proteins from cell cultures where quantified using multiplexed proximity extension assay, Proseek (Assarsson E et al PlosOne 2014) by Olink Proteomics AB (Uppsala Sweden). Data is presented as Normalized Protein Expression (NPX log 2-scale). The Oncology I v2 92-plex panel was run. MCF7 cells were cultured in serum-free conditions (No FBS added to DMEM) overnight prior to ligand stimulation, and media was replaced 3 times before stimulation to avoid exosomes from FBS. Cells were either treated with control (PBS) or biologically active GDF15 (Abcam) at 1.5 μg/ml for 1 hr at 37° C. For analyses of exosomes in FIG. 6A, conditioned medium was pre-cleared by centrifugation at 14,000×g for 10 min at 4° C., followed by filtration with a […] filter to avoid contaminants from cell debris, followed by ultracentrifugation at 100,000×g for 2 hrs. Pelleted exosome fraction was lysed with 1% Triton X-100 at 4° C., samples diluted in order to have 0.3% Triton concentration and analysed by Proseek multiplex panel as described above.

Row | ELISA OD450 TGFb2 [1] | ELISA OD450 TGFb1 [2] | ELISA OD450 GDF15 [3] | ELISA OD450 TGFb3 [4] | binding to TGF-β proteins [5] | Molecule | further results
1 | 0.014 | 0.032 | 0.061 | 0.029 | favourable binding | VSGDYYPIIYFNDYWNLQKDYYPINESLASLPLRVSFC (listed as Homo sapiens) [SEQ ID NO: 38] | 
2 | 0.164 | 1.536 | 0.507 | 0.151 |  | NAWQVIKGVLFRIFIIWAISSWFRRGPAPQDQAGPGGA (listed as Homo sapiens) [SEQ ID NO: 35] | 
3 | 1.630 | 2.102 | 0.779 | 0.300 | favourable binding | PLDQYVKFDAVSGDYYPIIYFNDYWNLQKDYYPINESLA (listed as Homo sapiens) [SEQ ID NO: 39] | 
4 | 0.009 | 0.177 | 0.021 | 0.007 | favourable binding | SGDYYPIIYFNDYWNLQKDYYPINESLA (listed as Homo sapiens) [SEQ ID NO: 40] | 
5 |  |  |  | 0.095 |  | 36 (DTLMNLHVYISEHEHFTDFNATSALFWEQHDLVYGDWTSG; listed as Homo sapiens) [compound 36] | 
6 | 0.006 | 0.010 | 0.023 | 0.019 | binds | DTLMNLHVYISEHEHFTDFNATSALFWEQHDLVYGDWTSG (listed as Homo sapiens) [SEQ ID NO: 36] | 
7 | 0.009 | 0.015 | 0.055 | 0.041 | binding has also been observed | TKSGFHPDPRQKALYRRLATVHMSRMINKYKRRRFQKTKN (listed as Homo sapiens) [SEQ ID NO: 37] | 
8 | 0.025 | 0.043 | 0.220 | 0.018 |  | ARSAVVAAGGGSSGQVTSNGSIGRDPPAETQPQNPPAQPA (listed as Homo sapiens) [SEQ ID NO: 34] | 
9 |  |  |  | 0.091 |  | 38 (VSGDYYPIIYFNDYWNLQKDYYPINESLASLPLRVSFC; listed as Homo sapiens) [compound 38] | 
10 | 0.008 | 0.013 | 0.033 | 0.011 |  | LWRWQLYAAQSTKSPWNFLGDELYEQSDEEQDSVKVALLETNP (listed as Homo sapiens) [SEQ ID NO: 33] | 
11 | 0.007 | 0.010 | 0.022 | 0.014 | favourable binding | SGDYYPIIYFNDYWNLQKDYYPINESLASLPLRVSFCPLS (listed as Homo sapiens) [SEQ ID NO: 32] | 

Second part, the molecule before the results:

Row | Molecule | ELISA OD450 TGFb2 [1] | ELISA OD450 TGFb1 [2] | ELISA OD450 GDF15 [3] | ELISA OD450 TGFb3 [4] | binding to TGF-β proteins [5] | further results
12 | YPINESLASLPLRVSFCPLSG (listed as Homo sapiens) [SEQ ID NO: 27] | 0.005 | 0.011 | 0.098 | 0.068 | binding | 
13 | KALYRRLATVHMSRMINKYKG (listed as Homo sapiens) [SEQ ID NO: 17] | 0.013 | 0.026 | 0.042 | 0.0060 | binding | 
14 | GDYYPIIYFNDYWNLQKDYYG (listed as Homo sapiens) [SEQ ID NO: 28] | 0.019 | 0.152 | 0.140 | 0.065 | binding | 
15 | TGFb1: TGF-β isoform 1, ligand for CLPTM1 |  |  |  |  |  | TBK1 level [6]: reduced
16 | LDQYVKFDAVSGDYYPIIYFG (listed as Homo sapiens) [SEQ ID NO: 21] | 0.002 | 0.022 | 0.034 | 0.020 | binding | 
17 | TGFb3: TGF-β isoform 3, ligand for CLPTM1 (protein) ALDTNYCFRNLEENCCVRPLYIDFRQDLGWKWVHEPKGYYANFCSGPCPYLRSADTTHSTVLGLYNTLNPEASASPCCVPQDLEPLTILYYVGRTPKVEQLSNMVVKSCKCS |  |  |  |  |  | PTP1B level [7]: significantly reduced; Caspase-3 secretion [8]: increased; CXCL9 secretion [9]: reduced; CXCL11 secretion [9]: reduced
18 | GDF15: Growth and Differentiation Factor 15, TGF-β superfamily ligand of CLPTM1 (protein) ARNGDHCPLGPGRCCRLHTVRASLEDLGWADWVLSPREVQVTMCIGACPSQFRAANMHAQIKTSLHRLKPDTVPAPCCVPASYNPMVLIQKTDTGVSLQTYDDLLAKDCHCI |  |  |  |  |  | Midkine (MK) expression [10]: increased; HB-EGF secretion [9]: increased; IFNγ expression [9]: reduced

Reference: patent US11406665B2, “Therapeutic peptides that target TGF-beta interaction” (GENAGON THERAPEUTICS AB, priority 2017, dated 2022)
